Test results from article PMC2515629 (PLoS ONE, 2008).

Biological target: T1, recombinant BoNT/A light chain (recombinant N-terminal domain of BoNT/A, amino acids 1-425) (Clostridium botulinum type A, …, UniProt P0DPI0)
T1 construct: source: E. coli, purified following published protocols
Assay: kinetic exclusion assay (KinExA)
Settings: both partners purified

T1 sequence (P0DPI0 1-425): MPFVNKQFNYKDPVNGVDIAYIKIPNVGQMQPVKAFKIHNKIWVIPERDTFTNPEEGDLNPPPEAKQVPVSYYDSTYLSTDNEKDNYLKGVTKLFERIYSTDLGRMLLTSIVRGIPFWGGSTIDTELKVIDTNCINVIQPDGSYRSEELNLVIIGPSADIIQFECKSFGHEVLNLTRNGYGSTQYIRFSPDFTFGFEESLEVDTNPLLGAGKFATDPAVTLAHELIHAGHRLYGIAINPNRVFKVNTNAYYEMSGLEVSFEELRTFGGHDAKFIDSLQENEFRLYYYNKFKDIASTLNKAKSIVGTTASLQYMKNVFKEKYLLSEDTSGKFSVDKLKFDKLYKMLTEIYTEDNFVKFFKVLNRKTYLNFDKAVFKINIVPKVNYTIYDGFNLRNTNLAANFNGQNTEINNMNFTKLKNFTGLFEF

B1: 4LCA antibody (antibody, V domains shown)
VH: QLQLQESGPGLVKPSETLSLTCTVSGGSISSSSYFWGWIRQPPGKGLEWIGYIHYSGNTYYNPSLTSRVTMSVDKSKNQFSLKLTSVTAADTALYSCATFLGRGAPFDPWGQGTLVTVSS
VL: QPPSVSVAPGQTARITCGGTNIGSKSVHWYQRQPGQAPVLVIYYDTDRPSGIPERFSGSNSENTATLTISRVEAGDEADYYCQVWGSGSDHPGVFGGGTKLTVL
notes: also called 4LCA mAb; 4LCA human monoclonal antibody
- Kd: 0.031 nM
- koff: 7.1e-05 s⁻¹
- kon: 2.3e+06 M⁻¹ s⁻¹
